In patent US20210338733A1 (University of Pennsylvania, published 2021):

Molecular target: T1, TnMUC1 in whole cell lysates of DU145 prostate cancer cells (single band of >200 kDa) (UniProt P15941 24-1255, limits assumed, Tn glycoform of MUC1 (aberrant O-glycosylation); sites not stated)
T1 construct: mature; also called mature TnMUC1
Experiment: Western blot on whole cell lysates of the prostate cancer cell line DU145

T1 sequence (P15941 24-1255 limits assumed): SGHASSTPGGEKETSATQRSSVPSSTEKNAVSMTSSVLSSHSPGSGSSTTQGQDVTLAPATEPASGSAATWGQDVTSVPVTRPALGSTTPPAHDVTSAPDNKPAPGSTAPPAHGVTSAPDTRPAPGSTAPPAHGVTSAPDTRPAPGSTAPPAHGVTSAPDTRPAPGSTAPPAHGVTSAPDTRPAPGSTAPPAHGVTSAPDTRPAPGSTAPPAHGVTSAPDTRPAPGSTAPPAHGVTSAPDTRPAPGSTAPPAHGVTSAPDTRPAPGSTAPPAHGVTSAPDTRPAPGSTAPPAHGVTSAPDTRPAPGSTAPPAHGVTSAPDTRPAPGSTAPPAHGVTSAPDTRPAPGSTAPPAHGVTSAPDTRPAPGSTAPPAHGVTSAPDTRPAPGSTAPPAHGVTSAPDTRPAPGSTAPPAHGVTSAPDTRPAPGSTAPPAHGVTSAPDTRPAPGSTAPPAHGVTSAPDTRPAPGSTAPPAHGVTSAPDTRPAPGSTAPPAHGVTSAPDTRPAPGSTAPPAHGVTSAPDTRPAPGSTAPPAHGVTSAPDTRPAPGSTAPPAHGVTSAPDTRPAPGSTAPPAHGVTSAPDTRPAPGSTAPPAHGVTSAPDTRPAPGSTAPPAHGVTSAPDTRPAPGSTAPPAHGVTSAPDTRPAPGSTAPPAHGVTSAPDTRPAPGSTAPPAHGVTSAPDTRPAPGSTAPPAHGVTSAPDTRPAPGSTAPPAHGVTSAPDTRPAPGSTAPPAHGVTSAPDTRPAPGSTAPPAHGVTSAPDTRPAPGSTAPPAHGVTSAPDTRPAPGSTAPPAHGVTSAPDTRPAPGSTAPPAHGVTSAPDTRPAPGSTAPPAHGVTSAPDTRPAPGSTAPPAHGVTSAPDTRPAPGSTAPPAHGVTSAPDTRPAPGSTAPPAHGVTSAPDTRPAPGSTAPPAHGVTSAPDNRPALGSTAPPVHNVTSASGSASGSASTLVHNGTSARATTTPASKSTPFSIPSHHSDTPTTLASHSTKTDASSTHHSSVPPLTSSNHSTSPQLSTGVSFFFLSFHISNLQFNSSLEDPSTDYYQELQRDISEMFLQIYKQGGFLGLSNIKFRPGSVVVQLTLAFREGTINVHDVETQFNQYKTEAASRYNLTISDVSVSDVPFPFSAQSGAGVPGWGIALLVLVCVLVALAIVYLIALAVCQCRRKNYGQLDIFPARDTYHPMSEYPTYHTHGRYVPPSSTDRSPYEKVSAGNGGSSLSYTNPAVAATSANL

B1: Anti-TnMUC1 murine monoclonal antibody clone 5E5 (antibody, V domains shown)
VH: QVQLQQSDAELVKPGSSVKISCKASGYTFTDHAIHWVKQKPEQGLEWIGHFSPGNTDIKYNDKFKGKATLTVDRSSSTAYMQLNSLTSEDSAVYFCKTSTFFFDYWGQGTTLTVSS
VL: ELVMTQSPSSLTVTAGEKVTMICKSSQSLLNSGDQKNYLTWYQQKPGQPPKLLIFWASTRESGVPDRFTGSGSGTDFTLTISSVQAEDLAVYYCQNDYSYPLTFGAGTKLELK
notes: also called 5E5 mAb; mAb 5E5
**Q.** Does B1 bind?
**A.** Result: binds
